Measured values: patent US12497446B2, “Tetranectin-targeting monoclonal antibodies to fight against lethal sepsis and other pathologies” (The Feinstein Institutes For Medical Research, priority 2019, dated 2025)

B1: murine TN: prokaryotes-derived (E. coli) recombinant murine tetranectin (protein)
chain: ESPTPKAKKAANAKKDLVSSKMFEELKNRMDVLAQEVALLKEKQALQTVCLKGTKVNLKCLLAFTQPKTFHEASEDCISQGGTLGTPQSELENEALFEYARHSVGNDANIWLGLNDMAAEGAWVDMTGGLLAYKNWETEITTQPDGGKAENCAALSGAANGKWFDKRCRDQLPYICQFAIV
B2: human TN: eukaryote-derived recombinant human tetranectin expressed in HEK293 kidney cells (ACROBiosystems) (protein, UniProt P05452 22-202, looked up)
Tetranectin: EPPTQKPKKIVNAKKDVVNTKMFEELKSRLDTLAQEVALLKEQQALQTVCLKGTKVHMKCFLAFTQTKTFHEASEDCISRGGTLGTPQTGSENDALYEYLRQSVGNEAEIWLGLNDMAAEGTWVDMTGARIAYKNWETEITAQPDGGKTENCAVLSGAANGKWFDKRCRDQLPYICQFGIV

How the values were obtained:
[1] = tested on: Balb/C mice subjected to CLP sepsis; assay: Animal model of lethal sepsis (CLP), animal survival; type: in vivo, mouse; details: for protection against lethal sepsis: i.p., 2 h post onset
Method: This study was conducted in accordance with policies of the NIH Guide for the Care and Use of Laboratory Animals and approved by the IACUC of the Feinstein Institute for Medical Research, Manhasset, New York, USA. To evaluate the role of TN in lethal sepsis, Balb/C mice (male, 7-8 weeks, 20-25 g) were subjected to lethal endotoxemia or sepsis induced by cecal ligation and puncture (CLP) as previously described. Briefly, the cecum of Balb/C mice was ligated at 5.0 mm from the cecal tip, and then punctured once with a 22-gauge needle. At 30 min post CLP, all animals were given a subcutaneous dosing of imipenem/cilastatin (0.5 mg/mouse) (Primaxin, Merck & Co., Inc., West Point, Pa.), and resuscitation with normal sterile saline solution (20 ml/kg). Recombinant TN or anti-TN polyclonal or monoclonal IgGs were intraperitoneally administered into endotoxemic or septic mice at indicated doses and time points, and animal survival rates were monitored for up to two weeks. To evaluate the role of TN in lethal sepsis, a few breeding pairs of the heterozygous TN (also called “CLCE3B”)-KO mice were obtained from the Jackson Laboratory (Stock No. 027554, Bar Harbor, ME, USA), and bred to produce homozygous TN KO as well as wild-type littermates. Age- and sex-matched wild-type (WT) or TN knockout (KO) C57/B6 mice were then used to induce CLP sepsis via identical procedures, and animal survival rates were compared for more than two weeks.

[2] = tested on: Balb/C mice subjected to lethal endotoxemia; assay: Animal model of lethal endotoxemia (LPS), animal survival; type: in vivo, mouse; details: i.p., 2 h post onset
Method: This study was conducted in accordance with policies of the NIH Guide for the Care and Use of Laboratory Animals and approved by the IACUC of the Feinstein Institute for Medical Research, Manhasset, New York, USA. To evaluate the role of TN in lethal sepsis, Balb/C mice (male, 7-8 weeks, 20-25 g) were subjected to lethal endotoxemia or sepsis induced by cecal ligation and puncture (CLP) as previously described. Briefly, the cecum of Balb/C mice was ligated at 5.0 mm from the cecal tip, and then punctured once with a 22-gauge needle. At 30 min post CLP, all animals were given a subcutaneous dosing of imipenem/cilastatin (0.5 mg/mouse) (Primaxin, Merck & Co., Inc., West Point, Pa.), and resuscitation with normal sterile saline solution (20 ml/kg). Recombinant TN or anti-TN polyclonal or monoclonal IgGs were intraperitoneally administered into endotoxemic or septic mice at indicated doses and time points, and animal survival rates were monitored for up to two weeks. To evaluate the role of TN in lethal sepsis, a few breeding pairs of the heterozygous TN (also called “CLCE3B”)-KO mice were obtained from the Jackson Laboratory (Stock No. 027554, Bar Harbor, ME, USA), and bred to produce homozygous TN KO as well as wild-type littermates. […]

| Molecule | protection in sepsis at sub-physiological doses ([1]; 0.1 mg/kg) | protection in sepsis at super-physiological doses ([1]; 1.0 mg/kg) | protection against lethal sepsis [1] | protection against lethal endotoxemia [2] |
| --- | --- | --- | --- | --- |
| B1 | conferred reproducible protection | not associated with any protective effect | reproducible and dose-dependent protection | reproducible and dose-dependent protection |
| B2 | – | – | reproducible and dose-dependent protection | reproducible and dose-dependent protection |
